System: MS2 coat protein
Experiment: apparent KD of MS2 coat protein; designed switch direction (-1 OFF switch, 1 ON switch): -1; higher = weaker reporter binding
Summary of the method: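 Designed RNA switches were transcribed on Illumina chips by stalled E. coli RNA polymerase and titrated with SNAP-549-labelled MS2 coat protein from 0.7 or 1.5 nM, doubling to 3 µM. Step length ran from 0.8–1.5 h at the lowest concentration to 10–20 min at the highest. The apparent KD is the median over clusters for each design, from curve-fitted normalised cluster fluorescence.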

[1] = Eterna round: R95, input ligand: microRNA oligo, concentration not stated
[2] = Eterna round: R95, input ligand: FMN 200 uM
[3] = Eterna round: R95, input ligand: none
[4] = input ligand: microRNA oligo, concentration not stated

Sequence | apparent KD of MS2 coat protein [1] [nM] | apparent KD of MS2 coat protein (input ligand: FMN 200 uM) [nM] | apparent KD of MS2 coat protein (input ligand: none) [nM] | also measured
UUUUAACAUGAGGAUCACCCAUGUGAGGAUAUCGAAAUUUAUAUUUAUAUUUAUAAUACGAGAAGGCACAUUUU [JMF 94] (puzzle: Exclusion 1) | 82.3 | – | – | –
UUUUAACAUGAGGAUCACCCAUGUGAGGAUAUCGAAAUUUAUAUUUAUAUUUAUUAAACGAGAAGGCACAUUUU [JMF 99] (puzzle: Exclusion 1) | 66.9 | – | – | –
UUUUAACAUGAGGAUCACCCAUGUGAGGAUAUCGAAUUUUUUAUUAAUAUUAAUAAAACGAGAAGGCACAUUUU [JMF 16] (puzzle: Exclusion 1) | 55.2 | – | – | –
UUUUAACAUGAGGAUCACCCAUGUGAGGAUAUCGUAAUUUUUAUUAAUAUUAAUAAAACGAGAAGGCACAUUUU [JMF 13] (puzzle: Exclusion 1) | 66.8 | – | – | –
UUUUAACAUGAGGAUCACCCAUGUGAGGAUAUCGUAUUUUUUUUUUUUUUUUUUUUUUCGAGAAGGCACAUUUU [My solution] (puzzle: Exclusion 1) | 6.56 | – | – | apparent KD of MS2 coat protein [2]: 1.24 nM; apparent KD of MS2 coat protein [3]: 16.5 nM
UUUUAACAUGAGGAUCACCCAUGUGAGGAUAUGGUAUUUUUUUUUUUUUUUUUUUUUUCCAGAAGGCACAUUUU [My solution] (puzzle: Exclusion 1) | 35.1 | – | – | apparent KD of MS2 coat protein [2]: 38.4 nM; apparent KD of MS2 coat protein [3]: 74.9 nM
UUUUAACAUGAGGAUCACCCAUGUGAGGAUAUGGUUUUUUUUUUUUUUUUUUUUUUUUCCAGAAGGCACAUUUU [My solution] (Eterna round: R96, puzzle: Exclusion 1) | – | 269 | 31.6 | apparent KD of MS2 coat protein [4]: 44.2 nM
UUUUAACAUGAGGAUCACCCAUGUGAGGAUAUGGUUUUUUUUUUUUUUUUUUUUUUUUCCAGAAGGCACAUUUU [My solution] (puzzle: Exclusion 1) | 13.7 | – | – | apparent KD of MS2 coat protein [2]: 25.4 nM; apparent KD of MS2 coat protein [3]: 119 nM
UUUUACAAGCUAAGAUCCUACAUGAGGAUCACCCAUGUGGUCCGGUGACGUGAGUCACCGGACUUAGCUCGUCUUGU [JL TOV1 3.70] (Eterna round: R97, puzzle: Sensor, turn-off variant 1) | – | 80.3 | 88.2 | –
UUUUACAAGCUUAGAUCCUACAUGAGGAUCACCCAUGUGGUCCGGUGACGUGAGUCACCGGACUAAGCUCGUCUUGU [JL TOV1 3.71] (Eterna round: R97, puzzle: Sensor, turn-off variant 1) | – | 124 | 114 | –
UUUUACAGGCUUAGAUCCUACAUGAGGAUCACCCAUGUGGUGGCGUGUCGUGAGACAUGCCACUAAGCUCGUCUUGU [JL TOV1 3.73] (Eterna round: R97, puzzle: Sensor, turn-off variant 1) | – | 98.3 | 103 | –
UUUUACAUCUAUGGGAGUGACAUGAGGAUCACCCAUGUAUGUCUUGUUUUUUGUUCGUCUAGGACUUUCUGAUCAGU [JR_SV3TOV1_Sub033] (puzzle: Sensor v3, turn-off variant 1) | 222 | – | – | apparent KD of MS2 coat protein [2]: 565 nM; apparent KD of MS2 coat protein [3]: 730 nM
UUUUACAUGCUGAGAUCCUACAUGAGGAUCACCCAUGUGGUCCGGAAAAUUUUGUCACCGGAUUUUGCUCGUCUUGU [salish99_S_TOV1_R5_102] (Eterna round: R97, puzzle: Sensor, turn-off variant 1) | – | 69.5 | 112 | –
UUUUACCUAGGAUAUACAUUUUUUUUAUUAUUUUCAUUAUAACAUGAGGAUCACCCAUGUAGAAGGAGGAUUUU [My Design] (puzzle: Exclusion 2) | 34.7 | – | – | –
UUUUACUCAGGAUAUAUGAUGUGAAACAUGAGGAUCACCCAUGUAAUAUUAUGGAUGUAAAUAGAAGGGAGAUUUU [Mat - Exclusion 5 - JL mod - D17] (puzzle: Exclusion 5) | 62.3 | – | – | apparent KD of MS2 coat protein [2]: 58.8 nM; apparent KD of MS2 coat protein [3]: 78.4 nM
UUUUAGAGAGGAUAUAUAAAGUGAAACAUGAGGAUCACCCAUGUAAUUUUAUGGAUGUAAAUAGAAGGCUCAUUUU [Mat - Exclusion 5 - JL mod - D2] (puzzle: Exclusion 5) | 34.2 | – | – | apparent KD of MS2 coat protein [2]: 27.8 nM; apparent KD of MS2 coat protein [3]: 34.7 nM
UUUUAGAGAGGAUAUAUAUUUUAAAACAUGAGGAUCACCCAUGUAAUUUUAUGGGAGUAAAUAGAAGGCUCAUUUA [JMFs Solution 3] (puzzle: Exclusion 5) | 51 | – | – | apparent KD of MS2 coat protein [2]: 48.7 nM; apparent KD of MS2 coat protein [3]: 56.3 nM
UUUUAGAGAGGAUAUAUUAUGUGAAACAUGAGGAUCACCCAUGUAAUAUGAUGGAUGUAAAUAGAAGGCUCAUUUA [JL-ex5-3.06] (puzzle: Exclusion 5) | 48.3 | – | – | apparent KD of MS2 coat protein [2]: 34.6 nM; apparent KD of MS2 coat protein [3]: 58 nM

Sequence | apparent KD of MS2 coat protein [1] [nM] | apparent KD of MS2 coat protein (input ligand: FMN 200 uM) [nM] | apparent KD of MS2 coat protein (input ligand: none) [nM] | also measured
UUUUAGGAAGGAUAUACAUUUUUUUUAUUAUCCUCAUUAUUACAUGAGGAUCACCCAUGUAGAAGGUCCAUUUU [My Design] (puzzle: Exclusion 2) | 175 | – | – | –
UUUUAGUAAGGAUAUGUGGUACGCUUAAAAUAGGAAGGGACACAGAAGGUACAUGAGGAUCACCCAUGUGAACC [Eternabot (L1) Solution 49] (Eterna round: R97, puzzle: Exclusion 4) | – | 140 | 61.9 | –
UUUUAGUCAGGAUAUACAUGAGGAUCACCCAUGUAAAAUUUUAAUUUAAUUUGAAGGUGUAGAAGGGACAUUUU [Ex3 #40] (Eterna round: R97, puzzle: Exclusion 3) | – | 25.9 | 27.8 | –
UUUUAGUCAGGAUAUACAUGAGGAUCACCCAUGUAAAAUUUUAAUUUAAUUUUAAGGUGUAGAAGGGACAUUUA [Ex3 #6] (Eterna round: R97, puzzle: Exclusion 3) | – | 28.4 | 33.6 | –
UUUUCACAUGAGGAUCACCCAUGUGAGGAUAUGGUUUCGCUGGCCGUAGCCAGUGGAACCAGAAGGCGCAUGAU [Mat - Exclusion 1 - JL Mod - D6] (Eterna round: R97, puzzle: Exclusion 1) | – | 35.3 | 30.2 | –
UUUUCGUGAGGAUAUCAGUAGUAAAUAAAUAAAAUUACUACUGAGAAGGCACAUGAGGAUCACCCAUGUUCCUU [salish99_ex3_r3_094] (puzzle: Exclusion 4) | 13.6 | – | – | –
UUUUCUUUUGUGAGGAUAUACUUCUUUUUCUUUUUGUAGAAGGCACAUGAGGAUCACCCAUGUUUUCUUUUCUC [JR_BME4_Sub028] (puzzle: Brourd's mod of Exclusion 4) | 13.7 | – | – | –
UUUUGAAAGUGAGGAUAUGACAUGAGGAUCACCCAUGUAAAGGGAGUUGACUAUAUAGAAAGAUAUCAGAAGGCACAAAUGUUU [JR_ExcNG2_Sub002] (Eterna round: R96, puzzle: Exclusion NG 2) | – | 839 | 321 | apparent KD of MS2 coat protein [4]: 237 nM
UUUUGACAAGCGAGAUCCUACAUGAGGAUCACCCAUGUAGACCAUGGUUUCCAUGGUCUUUUUGCUCGUCUUGUGUG [jl TITIN mod 5] (Eterna round: R97, puzzle: Sensor, turn-off variant 1) | – | 23.2 | 23.4 | –
UUUUGACAUGAGGAUCACCCAUGUUAGGAUAUCUUAAGGGAUGGAACAGGGUCGGAACAGAGAAGGAGCGUGGG [EX1 B.26] (Eterna round: R97, puzzle: Exclusion 1) | – | 82.4 | 47.9 | –
UUUUGCAAGCAAAUUGUCAACAUGAGGAUCACCCAUGUGGAAGCCUUGGAGGGUGGGACCGUAAGUAGAGCUCGUUU [Eternabot (L2) Solution 34] (Eterna round: R97, puzzle: Sensor, turn-off variant 1) | – | 38.1 | 39.2 | –
UUUUGCACGCUGCGGUCCUACAUGAGGAUCACCCAUGUGGUCUGGUGGCGUGGGUCGCCGGACUUGGCUCGUCUUGU [salish99_S_TOV1_R5_036] (Eterna round: R97, puzzle: Sensor, turn-off variant 1) | – | 19 | 19.1 | –
UUUUGGCAGGCUAUUAUUAACAUGAGGAUCACCCAUGUGCAUCCAAAAUUACUUUUAGAUCUUGCUCGUCUUAUAUA [JR_STOV1_Sub086] (Eterna round: R97, puzzle: Sensor, turn-off variant 1) | – | 379 | 684 | –
UUUUUAAAUGAAGGAUAUACUUAACAUGAGGAUCACCCAUGUGGUGUUGUGAGUGAGUGAGUUUAGUAGAAGGUCAAUGAUUUU [JMF's solution 65] (Eterna round: R96, puzzle: Exclusion NG 2) | – | 1250 | 211 | apparent KD of MS2 coat protein [4]: 196 nM
UUUUUACAUGAGGAUCACCCAUGUCAGGAUAUCCUUAUAUUUUAUUAUUUUAUUUUUUGGAGAAGGGACUAUUA [My solution] (Eterna round: R96, puzzle: Exclusion 1) | – | 362 | 322 | apparent KD of MS2 coat protein [4]: 282 nM
UUUUUACAUGAGGAUCACCCAUGUCAGGAUAUCCUUAUAUUUUAUUAUUUUAUUUUUUGGAGAAGGGACUAUUA [My solution] (puzzle: Exclusion 1) | 297 | – | – | –
UUUUUACAUGAGGAUCACCCAUGUCAGGAUAUUCUUAUAUUUUAUUAUUUUAUUUUUUGAAGAAGGGACUAUUA [My solution] (puzzle: Exclusion 1) | 99.4 | – | – | –
UUUUUACAUGAGGAUCACCCAUGUGAGGAUAUGGAGCGCGACCGCGCGGUCGCGUACACCAGAAGGCGCAUGAU [1st #77] (Eterna round: R97, puzzle: Exclusion 1) | – | 243 | 51.7 | –

— the supplement of paper PMC9170038
